According to patent publication EP4714976A1 (Sunshine Lake Pharma Co., Ltd., dated 2026):

T1: FGFR4 (acro) (UniProt P22455 22-369)
T1 sequence (looked up): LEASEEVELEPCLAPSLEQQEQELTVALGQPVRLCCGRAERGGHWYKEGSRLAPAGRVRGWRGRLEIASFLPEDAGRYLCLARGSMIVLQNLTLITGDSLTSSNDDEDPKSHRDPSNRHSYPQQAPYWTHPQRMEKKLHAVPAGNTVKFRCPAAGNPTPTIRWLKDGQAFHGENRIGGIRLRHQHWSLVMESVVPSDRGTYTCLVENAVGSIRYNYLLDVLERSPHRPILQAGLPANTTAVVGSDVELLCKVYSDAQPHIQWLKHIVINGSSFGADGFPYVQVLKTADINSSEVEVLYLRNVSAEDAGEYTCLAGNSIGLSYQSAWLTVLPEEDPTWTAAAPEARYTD

B1: 3A3 scFv-Fc (Fc fusion)
chain: QVQLQQSGAELVKPGASVKMSCKASGYTFTTYNIHWVRQTPGQGLEWIGLIYPDNGDTSYNQKFKAKATLTADKSSSTAYMHLSSLTSEDSAVYYCARGGFDYWGQGTTLTVSSGGGGSGGGGSGGGGSDIVMTQSHKFMSTSVGDRVSITCKASQDVNTDVSWYQQKPGQSPKLLIYSASYRYTGVPTRFTGSGSGTDFTFTISGVQAEDLADYYCQQHYNTPYTFGGGTRLEIKESKYGPPCPPCPAPEAAGGPSVFLFPPKPKDTLMISRTPEVTCVVVDVSQEDPEVQFNWYVDGVEVHNAKTKPREEQFNSTYRVVSVLTVLHQDWLNGKEYKCKVSNKGLPSSIEKTISKAKGQPREPQVYTLPPSQEEMTKNQVSLTCLVKGFYPSDIAVEWESNGQPENNYKTTPPVLDSDGSFFLYSKLTVDKSRWQEGNVFSCSVMHEALHNHYTQKSLSLSLG
notes: scFv-Fc dimer
B2: 2B1 scFv-Fc (Fc fusion)
chain: EVQLQQSGAELVKPGASVKMSCKASGYTFASYNLHWVKQTPGQGLEWIGLIYPENGDTSYNQKFKGKATLTADKSSSTAYIQLSSLTSEDSAVYFCARGGFDYWGQGTSLTVSSGGGGSGGGGSGGGGSDIQMIQSPASLSVSVGETVTITCRASENIYSNLAWYQQKQGKSPQLLVYNAKTLADGVPSRFSGSGSGTQYSLKINSLQPEDFGSYYCQHFWSTPYTFGGGTKLEIKESKYGPPCPPCPAPEAAGGPSVFLFPPKPKDTLMISRTPEVTCVVVDVSQEDPEVQFNWYVDGVEVHNAKTKPREEQFNSTYRVVSVLTVLHQDWLNGKEYKCKVSNKGLPSSIEKTISKAKGQPREPQVYTLPPSQEEMTKNQVSLTCLVKGFYPSDIAVEWESNGQPENNYKTTPPVLDSDGSFFLYSKLTVDKSRWQEGNVFSCSVMHEALHNHYTQKSLSLSLG
notes: scFv-Fc dimer
B3: 3A12 scFv-Fc (Fc fusion)
chain: EVQLQQSGAELVKPGASVKMSCKASGYTFSFYNVHWVRQTPGQGLEWIGLIYPDNGDTSYNQKFKAKATLTADKSSSAAYMQLSSLTSEDSAVYYCARGGFDYWGQGTSLTVSSGGGGSGGGGSGGGGSDIVMTQSHKFMSTSVGDRVNITCKASQDVSTAVAWYQQKPGQSPKLLIYSASYRYSGVPDRFTGSGSGTDFTFTISSVQAEDLAVYYCQQHYSTPYTFGGGTKLEMKESKYGPPCPPCPAPEAAGGPSVFLFPPKPKDTLMISRTPEVTCVVVDVSQEDPEVQFNWYVDGVEVHNAKTKPREEQFNSTYRVVSVLTVLHQDWLNGKEYKCKVSNKGLPSSIEKTISKAKGQPREPQVYTLPPSQEEMTKNQVSLTCLVKGFYPSDIAVEWESNGQPENNYKTTPPVLDSDGSFFLYSKLTVDKSRWQEGNVFSCSVMHEALHNHYTQKSLSLSLG
notes: scFv-Fc dimer
B4: 3H6 scFv-Fc (Fc fusion)
chain: QVQLQQSGAELVKPGASVKMSCKASGYTFSFYNIHWVRQTPGQGLEWIGLIYPDNGDTSYNQKFKAKATLTADKSSSTAYMQLSSLTSEDSAVYYCARGGFDYWGQGTTLTVSSGGGGSGGGGSGGGGSDIQMTQSPASLSASVGETVTITCRASENIYSYLAWYQQKQGKSPQLLVYNAKTLAEGVPSRFSGSGSGTQFSLKINSLQPEDFGSYYCQHHYGTPYTFGGGTKLEMKESKYGPPCPPCPAPEAAGGPSVFLFPPKPKDTLMISRTPEVTCVVVDVSQEDPEVQFNWYVDGVEVHNAKTKPREEQFNSTYRVVSVLTVLHQDWLNGKEYKCKVSNKGLPSSIEKTISKAKGQPREPQVYTLPPSQEEMTKNQVSLTCLVKGFYPSDIAVEWESNGQPENNYKTTPPVLDSDGSFFLYSKLTVDKSRWQEGNVFSCSVMHEALHNHYTQKSLSLSLG
notes: scFv-Fc dimer
B5: 3E7 scFv-Fc (Fc fusion)
chain: QVQLQQSGAELVKPGASVKMSCKASGYTFTIYNIHWVRQTPGQGLEWIGLIYPDNGDTSYNQKFKAKATLTADKSSSTAYMQLSSLTSEDSAVYYCARGGFDYWGQGTTLTVSSGGGGSGGGGSGGGGSNIVMTQSQKFMSTSVGDRVSVTCKASQNVGTNVAWYQQKPGQSPKALIYSASYRYSGVPDRFTGSGSGTDFTLTISGVQAEDLADYYCQQHYNTPYTFGGGTKLEIKESKYGPPCPPCPAPEAAGGPSVFLFPPKPKDTLMISRTPEVTCVVVDVSQEDPEVQFNWYVDGVEVHNAKTKPREEQFNSTYRVVSVLTVLHQDWLNGKEYKCKVSNKGLPSSIEKTISKAKGQPREPQVYTLPPSQEEMTKNQVSLTCLVKGFYPSDIAVEWESNGQPENNYKTTPPVLDSDGSFFLYSKLTVDKSRWQEGNVFSCSVMHEALHNHYTQKSLSLSLG
notes: scFv-Fc dimer
B6: 3F11 scFv-Fc (Fc fusion)
chain: QVQLQQSGAELVKPGASVKMSCKASGYTFAPYNIHWVRQTPGQGLEWIGLIYPDNGDTSYNQKFKAKATLTADKSSSTAYMQLSSLTSEDSAVYYCARGGFDYWGQGTSLTVSSGGGGSGGGGSGGGGSDIVMTQSQKFMSTSVGDRVSVTCKASQNVGTNVAWYQQKPGQSPKALIYSASYRYSGVPDRFTGSGSGTDFTLTISNVQSEDLAEYFCQQHYSTPFTFGSGTKLEIKESKYGPPCPPCPAPEAAGGPSVFLFPPKPKDTLMISRTPEVTCVVVDVSQEDPEVQFNWYVDGVEVHNAKTKPREEQFNSTYRVVSVLTVLHQDWLNGKEYKCKVSNKGLPSSIEKTISKAKGQPREPQVYTLPPSQEEMTKNQVSLTCLVKGFYPSDIAVEWESNGQPENNYKTTPPVLDSDGSFFLYSKLTVDKSRWQEGNVFSCSVMHEALHNHYTQKSLSLSLG
notes: scFv-Fc dimer
B7: 3C7 scFv-Fc (Fc fusion)
chain: EIQLQQSGAELVKPGASVKMSCKASGYIFRNYYIHWVKRTPGQGLEWIGAIYPDNGDTSYNQRFKVKATLTADTSSSTAYMQLSSLTSEDSAVYYCARAFTYWGQGTTLTVSSGGGGSGGGGSGGGGSDIQMIQSPASLSASVGETVTITCGASENIYGALNWYQRKQGKSPQLLIYGATNLADGMSSRFSGSGSGRQYSLKISSLHPDDVATYYCQNVLSTPYTFGGGTKLEIKESKYGPPCPPCPAPEAAGGPSVFLFPPKPKDTLMISRTPEVTCVVVDVSQEDPEVQFNWYVDGVEVHNAKTKPREEQFNSTYRVVSVLTVLHQDWLNGKEYKCKVSNKGLPSSIEKTISKAKGQPREPQVYTLPPSQEEMTKNQVSLTCLVKGFYPSDIAVEWESNGQPENNYKTTPPVLDSDGSFFLYSKLTVDKSRWQEGNVFSCSVMHEALHNHYTQKSLSLSLG
notes: scFv-Fc dimer
B8: 3E1 scFv-Fc (Fc fusion)
chain: QVQLQQPGAEVVKPGASVKMSCKASGYTFTDYYIHWVKQTPGQGLEWIGAIYPDNGDTSYNQKFKVKATLTADKSSSTAYMQLSSLTSEDSAVYYCARAFTYWGQGTLVTVSAGGGGSGGGGSGGGGSDILITQSPASLSASVGETVTITCGASENIYGALNWYQRKQGKSPQLLIYGATNLADGMSSRFSGSGSGRQYSLKISSLHPDDVATYYCQNVLSTPYTFGGGTKLEIKESKYGPPCPPCPAPEAAGGPSVFLFPPKPKDTLMISRTPEVTCVVVDVSQEDPEVQFNWYVDGVEVHNAKTKPREEQFNSTYRVVSVLTVLHQDWLNGKEYKCKVSNKGLPSSIEKTISKAKGQPREPQVYTLPPSQEEMTKNQVSLTCLVKGFYPSDIAVEWESNGQPENNYKTTPPVLDSDGSFFLYSKLTVDKSRWQEGNVFSCSVMHEALHNHYTQKSLSLSLG
notes: scFv-Fc dimer

Molecular target: T2, human FGFR2b (Kaixia Biotechnology, catalog number FGR-HM1BB) (human, UniProt P21802-3 22-378)
T2 construct: extracellular domain; bought; also called hFGFR2b; human FGFR2b protein
T2 sequence (P21802 other isoform, or with tags, fused parts or gaps): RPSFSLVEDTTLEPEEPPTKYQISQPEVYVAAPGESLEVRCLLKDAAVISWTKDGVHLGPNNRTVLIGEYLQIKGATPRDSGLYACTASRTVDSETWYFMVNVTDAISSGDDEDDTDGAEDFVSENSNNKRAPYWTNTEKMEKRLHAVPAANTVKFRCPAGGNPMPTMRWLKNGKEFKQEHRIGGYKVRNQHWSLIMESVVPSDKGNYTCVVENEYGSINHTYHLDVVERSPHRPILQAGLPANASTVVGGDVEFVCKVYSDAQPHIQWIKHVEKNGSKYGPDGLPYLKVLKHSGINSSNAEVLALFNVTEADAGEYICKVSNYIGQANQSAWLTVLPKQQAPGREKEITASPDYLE
Test: ELISA, FGFR2b coated at 1 µg/ml

Binder | EC50
B1 | 0.0216 µg/mL
B2 | 0.0276 µg/mL
B3 | 0.0128 µg/mL
B4 | 0.0128 µg/mL
B5 | 0.0154 µg/mL
B6 | 0.0156 µg/mL
B7 | 0.0166 µg/mL
B8 | 0.0156 µg/mL

Molecular target: T1, FGFR4 (acro)
Test: ELISA, antibody 10 µg/mL

Binder | OD (450 nm) value
B1 | 0.136
B2 | 0.103
B3 | 0.106
B4 | 0.157
B5 | 0.125
B6 | 0.093
B7 | 0.133
B8 | 0.096

Molecular target: T3, FGFR2c (acro) (UniProt P21802 22-377)
T3 sequence (P21802 22-377): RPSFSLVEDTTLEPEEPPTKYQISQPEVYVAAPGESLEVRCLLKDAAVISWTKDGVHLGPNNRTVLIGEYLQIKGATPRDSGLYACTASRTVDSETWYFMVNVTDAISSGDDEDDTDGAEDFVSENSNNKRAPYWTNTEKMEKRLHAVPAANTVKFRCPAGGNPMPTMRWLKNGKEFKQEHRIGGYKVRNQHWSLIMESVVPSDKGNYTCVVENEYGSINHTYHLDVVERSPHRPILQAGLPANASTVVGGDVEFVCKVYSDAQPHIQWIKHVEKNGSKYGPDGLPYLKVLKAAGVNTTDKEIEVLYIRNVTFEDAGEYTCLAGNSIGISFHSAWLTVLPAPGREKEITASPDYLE
Test: ELISA

Binder | binding result
B1 | no binding (tested: 10 µg/mL)
B2 | no binding (tested: 10 µg/mL)
B3 | no binding (tested: 10 µg/mL)
B4 | no binding (tested: 10 µg/mL)
B5 | no binding (tested: 10 µg/mL)
B6 | no binding (tested: 10 µg/mL)
B7 | no binding (tested: 10 µg/mL)
B8 | no binding (tested: 10 µg/mL)

Molecular target: T1, FGFR4 (acro)
Test: ELISA

Binder | binding result
B1 | no binding (tested: 10 µg/mL)
B2 | no binding (tested: 10 µg/mL)
B3 | no binding (tested: 10 µg/mL)
B4 | no binding (tested: 10 µg/mL)
B5 | no binding (tested: 10 µg/mL)
B6 | no binding (tested: 10 µg/mL)
B7 | no binding (tested: 10 µg/mL)
B8 | no binding (tested: 10 µg/mL)

Molecular target: T4, recombinant cynomolgus monkey FGFR2b (cynomolgus monkey)
T4 construct: extracellular domain; bought; also called cynomolgus macaque FGFR2b
Test: ELISA, antibody 1ug/mL

Binder | OD (450 nm) value
B1 | 3.2
B2 | 3
B3 | 3.27
B4 | 3.35
B5 | 3.15
B6 | 3.14
B7 | 3.19
B8 | 3.34

Molecular target: T2, human FGFR2b (Kaixia Biotechnology, …)
Test: BLI, antibody on AHC2 sensor

Binder | Kd | koff | kon
B1 | 3.71 nM | 0.00133 s⁻¹ | 359000 M⁻¹ s⁻¹
B2 | 6.67 nM | 0.00179 s⁻¹ | 268000 M⁻¹ s⁻¹
B3 | 2.82 nM | 0.000662 s⁻¹ | 235000 M⁻¹ s⁻¹
B4 | 8.41 nM | 0.00166 s⁻¹ | 198000 M⁻¹ s⁻¹
B5 | 4.35 nM | 0.00111 s⁻¹ | 256000 M⁻¹ s⁻¹
B6 | 6.13 nM | 0.00203 s⁻¹ | 331000 M⁻¹ s⁻¹
B7 | 3.99 nM | 0.00114 s⁻¹ | 287000 M⁻¹ s⁻¹
B8 | 4.5 nM | 0.00152 s⁻¹ | 337000 M⁻¹ s⁻¹

Molecular target: T5, FGFR2b on KATO III cells (human, UniProt P21802-3 22-822)
T5 construct: whole, on cells; also called KATO III cells that overexpress FGFR2b
T5 sequence (P21802 other isoform, or with tags, fused parts or gaps): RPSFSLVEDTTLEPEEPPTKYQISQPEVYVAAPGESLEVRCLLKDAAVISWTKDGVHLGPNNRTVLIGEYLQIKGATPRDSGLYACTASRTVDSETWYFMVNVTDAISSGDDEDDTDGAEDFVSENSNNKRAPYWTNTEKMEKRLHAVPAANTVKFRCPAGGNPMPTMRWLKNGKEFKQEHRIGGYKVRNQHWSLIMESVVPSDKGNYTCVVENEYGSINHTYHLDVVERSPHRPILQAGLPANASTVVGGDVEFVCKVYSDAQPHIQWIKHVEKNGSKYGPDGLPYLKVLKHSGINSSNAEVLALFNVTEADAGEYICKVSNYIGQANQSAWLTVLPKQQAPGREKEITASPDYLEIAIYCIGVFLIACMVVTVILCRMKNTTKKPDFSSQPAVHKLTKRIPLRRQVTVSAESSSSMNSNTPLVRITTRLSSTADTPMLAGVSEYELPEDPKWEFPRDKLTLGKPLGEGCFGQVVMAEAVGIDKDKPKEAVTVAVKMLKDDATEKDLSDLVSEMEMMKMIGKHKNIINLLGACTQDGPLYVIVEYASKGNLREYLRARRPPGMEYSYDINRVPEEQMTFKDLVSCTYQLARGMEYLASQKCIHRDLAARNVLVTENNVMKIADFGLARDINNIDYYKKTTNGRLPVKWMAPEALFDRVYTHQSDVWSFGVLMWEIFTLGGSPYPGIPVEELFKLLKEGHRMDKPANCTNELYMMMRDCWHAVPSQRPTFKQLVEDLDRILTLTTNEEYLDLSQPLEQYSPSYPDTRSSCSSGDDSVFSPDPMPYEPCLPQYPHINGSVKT
Test: flow cytometry, KATO III cells

Binder | EC50
B1 | 0.236 µg/mL
B2 | 0.195 µg/mL
B3 | 0.292 µg/mL
B4 | 0.226 µg/mL
B5 | 0.298 µg/mL
B6 | 0.164 µg/mL
B7 | 0.2 µg/mL
B8 | 0.132 µg/mL

Molecular target: T3, FGFR2c (acro)
Test: ELISA, antibody 10 µg/mL

Binder | OD (450 nm) value
B1 | 0.137
B2 | 0.098
B3 | 0.098
B4 | 0.093
B5 | 0.114
B6 | 0.086
B7 | 0.091
B8 | 0.118
